{"source": "paper doi:10.1101/2020.06.29.177279", "about": "(bioRxiv, 2020)", "binders": {"B1": {"name": "RPC9 (natural protein)", "chain": "not shown"}, "B2": {"name": "RPC4 (from HeLa) (natural protein)", "chain": "MSEGNAAGEPSTPGGPRPLLTGARGLIGRRPAPPLTPGRLPSIRSRDLTLGGVKKKTFTPNIISRKIKEEPKEEVTVKKEKRERDRDRQREGHGRGRGRPEVIQSHSIFEQGPAEMMKKKGNWDKTVDVSDMGPSHIINIKKEKRETDEETKQILRMLEKDDFLDDPGLRNDTRNMPVQLPLAHSGWLFKEENDEPDVKPWLAGPKEEDMEVDIPAVKVKEEPRDEEEEAKMKAPPKAARKTPGLPKDVSVAELLRELSLTKEEELLFLQLPDTLPGQPPTQDIKPIKTEVQGEDGQVVLIKQEKDREAKLAENACTLADLTEGQVGKLLIRKSGRVQLLLGKVTLDVTMGTACSFLQELVSVGLGDSRTGEMTVLGHVKHKLVCSPDFESLLDHKHR"}, "B3": {"name": "RPC1, largest subunit of human Pol III (from HeLa) (natural protein)", "chain": "MVKEQFRETDVAKKISHICFGMKSPEEMRQQAHIQVVSKNLYSQDNQHAPLLYGVLDHRMGTSEKDRPCETCGKNLADCLGHYGYIDLELPCFHVGYFRAVIGILQMICKTCCHIMLSQEEKKQFLDYLKRPGLTYLQKRGLKKKISDKCRKKNICHHCGAFNGTVKKCGLLKIIHEKYKTNKKVVDPIVSNFLQSFETAIEHNKEVEPLLGRAQENLNPLVVLNLFKRIPAEDVPLLLMNPEAGKPSDLILTRLLVPPLCIRPSVVSDLKSGTNEDDLTMKLTEIIFLNDVIKKHRISGAKTQMIMEDWDFLQLQCALYINSELSGIPLNMAPKKWTRGFVQRLKGKQGRFRGNLSGKRVDFSGRTVISPDPNLRIDEVAVPVHVAKILTFPEKVNKANINFLRKLVQNGPEVHPGANFIQQRHTQMKRFLKYGNREKMAQELKYGDIVERHLIDGDVVLFNRQPSLHKLSIMAHLARVKPHRTFRFNECVCTPYNADFDGDEMNLHLPQTEEAKAEALVLMGTKANLVTPRNGEPLIAAIQDFLTGAYLLTLKDTFFDRAKACQIIASILVGKDEKIKVRLPPPTILKPVTLWTGKQIFSVILRPSDDNPVRANLRTKGKQYCGKGEDLCANDSYVTIQNSELMSGSMDKGTLGSGSKNNIFYILLRDWGQNEAADAMSRLARLAPVYLSNRGFSIGIGDVTPGQGLLKAKYELLNAGYKKCDEYIEALNTGKLQQQPGCTAEETLEALILKELSVIRDHAGSACLRELDKSNSPLTMALCGSKGSFINISQMIACVGQQAISGSRVPDGFENRSLPHFEKHSKLPAAKGFVANSFYSGLTPTEFFFHTMAGREGLVDTAVKTAETGYMQRRLVKSLEDLCSQYDLTVRSSTGDIIQFIYGGDGLDPAAMEGKDEPLEFKRVLDNIKAVFPCPSEPALSKNELILTTESIMKKSEFLCCQDSFLQEIKKFIKGVSEKIKKTRDKYGINDNGTTEPRVLYQLDRITPTQVEKFLETCRDKYMRAQMEPGSAVGALCAQSIGEPGTQMTLKTFHFAGVASMNITLGVPRIKEIINASKAISTPIITAQLDKDDDADYARLVKGRIEKTLLGEISEYIEEVFLPDDCFILVKLSLERIRLLRLEVNAETVRYSICTSKLRVKPGDVAVHGEAVVCVTPRENSKSSMYYVLQFLKEDLPKVVVQGIPEVSRAVIHIDEQSGKEKYKLLVEGDNLRAVMATHGVKGTRTTSNNTYEVEKTLGIEAARTTIINEIQYTMVNHGMSIDRRHVMLLSDLMTYKGEVLGITRFGLAKMKESVLMLASFEKTADHLFDAAYFGQKDSVCGVSECIIMGIPMNIGTGLFKLLHKADRDPNPPKRPLIFDTNEFHIPLVT"}}, "test_in_all_cases": "cryo-EM structure", "key": {"RPC8": {"target": "T1, RPC8 (human (endogenous in HeLa), UniProt Q9Y535 1-204)", "T1 sequence": "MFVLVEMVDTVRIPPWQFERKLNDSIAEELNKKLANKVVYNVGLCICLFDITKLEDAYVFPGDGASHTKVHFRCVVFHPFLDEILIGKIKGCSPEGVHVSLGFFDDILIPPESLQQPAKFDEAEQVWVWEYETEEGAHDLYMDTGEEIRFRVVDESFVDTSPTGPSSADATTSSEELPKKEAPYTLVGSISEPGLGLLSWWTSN"}, "RPC5 (from HeLa)": {"target": "T2, RPC5 (from HeLa) (human (endogenous in HeLa), UniProt Q9NVU0 1-708)", "T2 sequence": "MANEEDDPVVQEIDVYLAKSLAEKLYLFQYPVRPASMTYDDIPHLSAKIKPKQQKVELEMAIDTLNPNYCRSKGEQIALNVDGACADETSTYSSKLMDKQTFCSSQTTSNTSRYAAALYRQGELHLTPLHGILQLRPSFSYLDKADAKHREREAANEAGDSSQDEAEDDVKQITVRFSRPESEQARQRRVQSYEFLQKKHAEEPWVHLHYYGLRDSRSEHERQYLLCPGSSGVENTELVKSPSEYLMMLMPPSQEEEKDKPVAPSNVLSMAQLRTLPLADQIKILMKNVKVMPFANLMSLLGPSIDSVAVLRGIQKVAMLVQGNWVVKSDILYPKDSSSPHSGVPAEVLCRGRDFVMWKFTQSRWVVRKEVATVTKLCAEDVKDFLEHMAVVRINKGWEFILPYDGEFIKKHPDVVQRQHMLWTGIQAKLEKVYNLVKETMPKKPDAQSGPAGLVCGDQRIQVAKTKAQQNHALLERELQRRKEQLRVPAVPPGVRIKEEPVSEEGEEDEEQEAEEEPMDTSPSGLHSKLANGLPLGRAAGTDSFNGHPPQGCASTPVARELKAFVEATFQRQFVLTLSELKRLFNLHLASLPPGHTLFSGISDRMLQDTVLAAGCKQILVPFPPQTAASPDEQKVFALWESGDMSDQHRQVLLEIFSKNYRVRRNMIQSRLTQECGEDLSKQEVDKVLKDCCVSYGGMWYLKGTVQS"}, "RPABC1": {"target": "RPABC1 (human (endogenous in HeLa), UniProt P19388 1-210)"}}, "data": [{"binder": "B1", "values": [{"measurement": "binding result", "setting": "RPC8", "value": "binds"}]}, {"binder": "B2", "values": [{"measurement": "binding result", "setting": "RPC5 (from HeLa)", "value": "binds"}]}, {"binder": "B3", "values": [{"measurement": "binding result", "setting": "RPABC1", "value": "binds"}]}]}
